Values of other authors in publication PMC2647589.

Biological target: MeTRH (UniProt P20396)
Sequence of UniProt P20396 (P20396 whole entry, looked up): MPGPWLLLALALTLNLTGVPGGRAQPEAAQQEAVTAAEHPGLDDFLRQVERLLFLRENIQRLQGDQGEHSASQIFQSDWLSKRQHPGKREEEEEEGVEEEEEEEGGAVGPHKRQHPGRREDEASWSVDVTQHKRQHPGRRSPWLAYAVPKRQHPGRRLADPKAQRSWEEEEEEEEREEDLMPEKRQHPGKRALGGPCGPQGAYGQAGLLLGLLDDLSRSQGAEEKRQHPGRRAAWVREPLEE

TRH receptor (from UniProt P21761)
Kd: 2 nM
